According to publication PMC4161475:

Target: G-actin (rabbit skeletal muscle actin, monomeric) (rabbit) (UniProt P68135)
Test: ELISA; solid-phase assay: wells coated with 5 µM G-actin in PBS, 5 µM protein added, detected with anti-EhCoactosin antibody; in the presence of Ca2+ (2 mM) or EGTA (5 mM)

Substance: EhCoactosin with the C-terminal 14 residues deleted (domain or fragment)
- percent decrease in binding against WT: 33%
